Publication PMC4850634, “Characterization of an A-kinase anchoring protein-like suggests an alternative way of PKA anchoring in Plasmodium falciparum” (Malaria Journal, 2016)

Biological target: the molecule itself
Experiment: SEC; Superdex S200 10/300 Increase, 20 mM Tris-HCl pH 8, 300 mM NaCl; affinity-purified (His)6 protein; peak fractions checked by 12.5 % SDS-PAGE

B1: (His)6-Pf14-3-3I (natural protein, Plasmodium falciparum, UniProt C0H4V6 1-262, looked up)
chain: MATSEELKQLRCDCTYRSKLAEQAERYDEMADAMRTLVEQCVNNDKDELTVEERNLLSVAYKNAVGARRASWRIISSVEQKEMSKANVHNKNVAATYRKKVEEELNNICQDILNLLTKKLIPNTSESESKVFYYKMKGDYYRYISEFSCDEGKKEASNCAQEAYQKATDIAENELPSTHPIRLGLALNYSVFFYEILNQPHQACEMAKRAFDDAITEFDNVSEDSYKDSTLIMQLLRDNLTLWTSDLQGDQTEEKSKDEGLE
notes: 14-3-3I protein, Plasmodium falciparum, PlasmoDB MAL8P1.69/PF3D7_0818200; amplified from a P. falciparum cDNA library with primers from the start to the stop codon, cloned into pRSFDuet; recombinant protein 30 kDa; source: E. coli BL21 Codon Plus, purified (Ni-NTA-agarose)
  stoichiometry N: 2
